Reference: article PMC7661507

Experiments:
[1] = molecular target: H1 V104C/G194C labeled with Alexa Fluor 488/594 (human); assay: single-molecule FRET; freely diffusing molecules; labeled protein titrated with the unlabeled partner (labeled ProTα with unlabeled H1, labeled H1 with unlabeled ProTα); TBS, 208 mM ionic strength
[2] = molecular target: recombinant wild-type human histone H1.0 (unlabeled) (human); assay: single-molecule FRET; competition titration, freely diffusing molecules; constant 50 pM labeled ProTα and unlabeled H1 (1 to 50 nM), unlabeled ProTα varied; TBS, 230 mM ionic strength
Sequence of recombinant wild-type human histone H1.0 (unlabeled) (human) (P07305 2-194): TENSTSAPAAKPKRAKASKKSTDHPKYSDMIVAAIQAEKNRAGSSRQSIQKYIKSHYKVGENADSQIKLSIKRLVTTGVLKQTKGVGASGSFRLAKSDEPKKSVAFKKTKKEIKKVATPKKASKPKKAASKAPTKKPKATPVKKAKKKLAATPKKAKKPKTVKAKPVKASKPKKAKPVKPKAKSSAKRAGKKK

[3] = molecular target: recombinant wild-type human histone H1.0 (unlabeled) (human); assay: single-molecule FRET; competition titration, freely diffusing molecules; constant 50 pM labeled ProTα and unlabeled H1 (1 to 50 nM), unlabeled ProTα varied; TBS, 165 mM ionic strength
[4] = molecular target: 1:1 complex of ProTα E56C/D110C Alexa488/594 and unlabeled H1 (human); assay: single-molecule FRET; freely diffusing molecules; unlabeled H1 titrated to 50 pM labeled ProTα fully saturated with unlabeled H1 (PH + H ⇌ PHH); TBS, 18 mM ionic strength
[5] = molecular target: ProTα E56C/D110C labeled with Alexa Fluor 488/594 (human); assay: single-molecule FRET; freely diffusing molecules; 50 pM labeled ProTα titrated with unlabeled H1; TBS (10 mM Tris, 0.1 mM EDTA, KCl), 140 mM β-mercaptoethanol, 0.01% Tween 20; 165 mM ionic strength
[6] = molecular target: 1:1 complex of ProTα E56C/D110C Alexa488/594 and unlabeled H1 (human); assay: single-molecule FRET; freely diffusing molecules; unlabeled H1 titrated to 50 pM labeled ProTα fully saturated with unlabeled H1 (PH + H ⇌ PHH); TBS, 8 mM ionic strength
[7] = molecular target: Avi-ProTα E56C/D110C, biotinylated, labeled with Cy3B/LD650 (human); assay: single-molecule FRET; biotinylated Avi-ProTα immobilised on a PEG/neutravidin surface, unlabeled H1 in solution; two-state model of time traces; TBS in D2O, 275 mM ionic strength
[8] = molecular target: 1:1 complex of ProTα E56C/D110C Alexa488/594 and unlabeled H1 (human); assay: single-molecule FRET; rate coefficient of PH + H ⇌ PHH at 200 mM ionic strength; KD extrapolated from lower ionic strengths, kon^PHH assumed equal to kon^PPH
[9] = molecular target: 1:1 complex of ProTα E56C/D110C Alexa488/594 and unlabeled H1 (human); assay: single-molecule FRET; freely diffusing molecules; unlabeled H1 titrated to 50 pM labeled ProTα fully saturated with unlabeled H1 (PH + H ⇌ PHH); TBS, 23 mM ionic strength
[10] = molecular target: Avi-ProTα E56C/D110C, biotinylated, labeled with Cy3B/LD650 (human); assay: single-molecule FRET; biotinylated Avi-ProTα immobilised on a PEG/neutravidin surface, unlabeled H1 in solution; two-state model of time traces; TBS in D2O, 230 mM ionic strength
[11] = molecular target: 1:1 complex of ProTα E56C/D110C Alexa488/594 and unlabeled H1 (human); assay: single-molecule FRET; freely diffusing molecules; unlabeled H1 titrated to 50 pM labeled ProTα fully saturated with unlabeled H1 (PH + H ⇌ PHH); TBS, 43 mM ionic strength
[12] = molecular target: 1:1 complex of ProTα E56C/D110C Alexa488/594 and unlabeled H1 (human); assay: single-molecule FRET; freely diffusing molecules; unlabeled H1 titrated to 50 pM labeled ProTα fully saturated with unlabeled H1 (PH + H ⇌ PHH); TBS, 13 mM ionic strength
[13] = molecular target: Avi-ProTα E56C/D110C, biotinylated, labeled with Cy3B/LD650 (human); assay: single-molecule FRET; biotinylated Avi-ProTα immobilised on a PEG/neutravidin surface, unlabeled H1 in solution; two-state model of time traces; TBS in D2O, 275 mM ionic strength; remark: listed apart in the source
[14] = molecular target: ProTα E56C/D110C labeled with Alexa Fluor 488/594 (human); assay: single-molecule FRET; freely diffusing molecules; 50 pM labeled ProTα titrated with unlabeled H1; TBS, 240 mM ionic strength
[15] = molecular target: 1:1 complex of ProTα E56C/D110C Alexa488/594 and unlabeled H1 (human); assay: single-molecule FRET; freely diffusing molecules; unlabeled H1 titrated to 50 pM labeled ProTα fully saturated with unlabeled H1 (PH + H ⇌ PHH); TBS, 58 mM ionic strength
[16] = molecular target: 1:1 complex of ProTα E56C/D110C Alexa488/594 and unlabeled H1 (human); assay: single-molecule FRET; freely diffusing molecules; unlabeled H1 titrated to 50 pM labeled ProTα fully saturated with unlabeled H1 (PH + H ⇌ PHH); TBS, 33 mM ionic strength
[17] = molecular target: 1:1 complex of ProTα E56C/D110C Alexa488/594 and unlabeled H1 (human); assay: single-molecule FRET; freely diffusing molecules; unlabeled H1 titrated to 50 pM labeled ProTα fully saturated with unlabeled H1 (PH + H ⇌ PHH); TBS, 83 mM ionic strength
[18] = molecular target: ProTα E56C/D110C labeled with Cy3B/Abberior STAR635 (human); assay: single-molecule FRET; freely diffusing molecules; labeled protein titrated with the unlabeled partner (labeled ProTα with unlabeled H1, labeled H1 with unlabeled ProTα); TBS, 208 mM ionic strength
[19] = molecular target: ProTα E55C/D109C labeled with Alexa Fluor 488/594 (human); assay: as above
[20] = molecular target: ProTα E56C/D110C labeled with Atto 550/647N (human); assay: as above
[21] = molecular target: ProTα S1C/D109C labeled with Alexa Fluor 488/594 (human); assay: as above
[22] = molecular target: ProTα E56C/D110C labeled with Alexa Fluor 488/594 (human); assay: as above
[23] = molecular target: ProTα S1C/E55C labeled with Alexa Fluor 488/594 (human); assay: as above
[24] = molecular target: ProTα S1C/D110C labeled with Alexa Fluor 488/594 (human); assay: as above
[25] = molecular target: ProTα E56C/D110C labeled with Alexa Fluor 488/594 (human); assay: single-molecule FRET; freely diffusing molecules; 50 pM labeled ProTα titrated with unlabeled H1; TBS, 180 mM ionic strength
[26] = molecular target: Avi-ProTα E56C/D110C, biotinylated, labeled with Cy3B/LD650 (human); assay: single-molecule FRET; biotinylated Avi-ProTα immobilised on a PEG/neutravidin surface, unlabeled H1 in solution; two-state model of time traces; TBS in D2O, 230 mM ionic strength; remark: listed apart in the source
[27] = molecular target: ProTα E56C/D110C labeled with Alexa Fluor 488/594 (human); assay: single-molecule FRET; freely diffusing molecules; 50 pM labeled ProTα titrated with unlabeled H1; TBS, 340 mM ionic strength
[28] = molecular target: ProTα E56C/D110C labeled with Alexa Fluor 488/594 (human); assay: single-molecule FRET; freely diffusing molecules; 50 pM labeled ProTα titrated with unlabeled H1; TBS, 330 mM ionic strength
[29] = molecular target: ProTα E56C/D110C labeled with Alexa Fluor 488/594 (human); assay: stopped-flow fluorescence; 2 nM labeled ProTα mixed with different concentrations of H1; TBS, 165 mM ionic strength; fit with kex = kon cH + KD kon
[30] = molecular target: ProTα E55C/D109C labeled with Alexa Fluor 488/594 (human); assay: single-molecule FRET; freely diffusing molecules; 50 pM labeled ProTα titrated with unlabeled H1; TBS, 200 mM ionic strength
[31] = molecular target: Avi-ProTα E56C/D110C, biotinylated, labeled with Cy3B/LD650 (human); assay: as above
[32] = molecular target: ProTα E56C/D110C labeled with Alexa Fluor 488/594 (human); assay: single-molecule FRET; freely diffusing molecules; 50 pM labeled ProTα titrated with unlabeled H1; TBS, 290 mM ionic strength

Sequence of recombinant wild-type human histone H1.0 (unlabeled) (natural protein) (P07305 2-194): as above

ProTα (unlabeled & NMR) (natural protein)
Kd [1]: 3.5 nM
Kd [2]: 6.5 nM
Kd [3]: 0.0058 nM

recombinant wild-type human histone H1.0 (unlabeled) (natural protein)
Kd [4]: 710 nM
Kd [5]: 0.0021 nM
Kd [6]: 200 nM
kon [7]: 1.01e+09 M⁻¹ s⁻¹
koff [8]: 6000 s⁻¹
Kd [9]: 540 nM
Kd [10]: 2 nM
koff [10]: 2.8 s⁻¹
kon [10]: 3.1e+09 M⁻¹ s⁻¹
Kd [11]: 1800 nM
Kd [12]: 540 nM
Kd [13]: 59 nM
koff [13]: 59 s⁻¹
kon [13]: 3.1e+09 M⁻¹ s⁻¹
Kd [14]: 25 nM
Kd [15]: 2800 nM
Kd [16]: 1310 nM
Kd [17]: 4100 nM
Kd [18]: 1 nM
Kd [19]: 1.3 nM
Kd [20]: 3.1 nM
Kd [21]: 2.3 nM
Kd [22]: 1 nM
Kd [23]: 1.3 nM
Kd [24]: 2 nM
Kd [25]: 0.037 nM
kon [26]: 1.4e+09 M⁻¹ s⁻¹
Kd [27]: 4000 nM
Kd [28]: 1400 nM
koff [29]: 0.006 s⁻¹
kon [29]: 3.5e+09 M⁻¹ s⁻¹
Kd [30]: 0.51 nM
Kd [31]: 1.12 nM
Kd [32]: 230 nM
